Experiment [1] addresses G-actin (monomeric actin) (chicken) (UniProt P68139). Briefly: ITC. (Isothermal titration calorimetry measures the heat released or taken up as one component is titrated into another.)
Experiment [2] addresses G-actin (monomeric actin from chicken muscle) (chicken) (UniProt P68139). Put plainly: ITC.

By Kd is commonly meant the concentration at which binding is half-saturated. High values mean weaker binding, low ones tighter binding. Usually stoichiometry N stands for the number of molecules, sites or subunits per partner or assembly. In experiment [1], “Tarp_(726–825) (translocated actin recruiting phosphoprotein, residues 726–825, containing the G-actin binding domain) (from UniProt Q6GX35 726-825) (domain or fragment)” had a Kd of 102 nM and a stoichiometry N of 1.
“Tarp_(726–825) (translocated actin recruiting phosphoprotein, G-actin binding region) (domain or fragment)”: the stoichiometry N in experiment [2] turned out to be 1.

The record behind these values is paper PMC5792643.
